Data as given in publication PMC10232555, “Molecular structure of soluble vimentin tetramers” (Scientific Reports, 2023).
Values joined by “and” are separate entries in the source; they are usually repeats but may differ in a detail not shown here. Equal values may be shown once.

B1: vimentin ΔNrod (coil1B and coil2, residues 150-404) (domain or fragment)
chain: not shown
notes: vimentin, human, coil1B and coil2 domains, residues 150-404; theoretical monomer mass printed as 30.2 kDa; source: denatured in 8 M urea and re-natured by step-wise dialysis before analysis
B2: vimentin rod domain (residues 93-404) (domain or fragment)
chain: not shown
notes: vimentin, human, rod domain, residues 93-404; theoretical monomer mass printed as 36.9 kDa; also called rod fragment; rod construct; source: denatured in 8 M urea and re-natured by step-wise dialysis before analysis
B3: vimentin coil1B construct (residues 150-249) (domain or fragment)
chain: not shown
notes: vimentin, human, coil1B, residues 150-249; theoretical monomer mass printed as 12.1 kDa; also called coil1B fragment; source: denatured in 8 M urea and re-natured by step-wise dialysis before analysis

Columns and labels:
[1] = biological target: the molecule itself; test: SEC-MALS; Superdex 200 Increase 10/300 GL, HS buffer (10 mM HEPES, 150 mM NaCl, pH 7.5) after salt jump and 1 h at 37 °C; injected 0.79 mg/mL rod, 0.55 mg/mL ΔNrod, 1.52 mg/mL coil1B
[2] = biological target: the molecule itself; test: cross-linking; truncated fragments 0.4 mg/mL in HS conditions (10 mM HEPES, 150 mM NaCl, pH 7.5); DSG and DSBU; reducing SDS-PAGE

Protein	stoichiometry N [1]	stoichiometry N [2]
B1	2 and 4	2
B2	4	4
B3	2	2
